{"source": "patent US20140037626A1", "about": "“Metal Abstraction Peptide With Release of Metal” (Echogen, Inc., priority 2012, published 2014)", "key": {"[1]": {"assay": "pH-dependent release of platinum from MAP peptides (absorption, NMR, MS)", "type": "physicochemical", "conditions": "low pH (pH 2.47 with excess ammonium chloride in FIG. 10)", "experimental": "Because Pt is bound to ammonia and chloride ligands in the common inorganic complex cisplatin, the release experiment was also performed in the presence of excess ammonium chloride. […] Additionally, ^1H NMR of the GGNCC (SEQ ID NO.:1), and Pt-GGNCC (SEQ ID NO.:1) at low pH were all performed.\nMS data was obtained at low pH when solvent (DMSO) was added to the peptide-metal complex before dropping the pH, to keep some of the species that result from metal release soluble. Although a small amount of a yellow precipitate formed, the peptide returned to the apo state and remained in solution as determined by MS (FIG. 12). By adding DMSO to the solution, a similar release experiment was performed using absorption spectroscopy. […] The loss of absorbance intensity corresponded to loss of metal from the complex. The loss of intensity was monitored at 315 nm, as this is a significant, yet unique, feature in the Pt-NCC spectral profile, and pH dependent release curve was prepared (FIG. 13)."}, "[2]": {"assay": "pH-dependent release of nickel from MAP peptides by absorption spectroscopy", "type": "physicochemical", "conditions": "FIG. 9; intensity at 415 nm with decreasing pH", "experimental": "The loss of absorbance intensity corresponds to loss of metal from the complex, as the absorption features that are observed for Ni-MAP are due to ligand to metal charge transfer (LMCT) bands and d to d transitions. By monitoring the intensity of one specific peak (415 nm for the pentapteptide) with decreasing pH, the percent of the complex remaining at each pH unit was calculated and plotted (FIG. 9).\npH release experiments were then performed (FIG. 16), and release curves were prepared for each of the six peptides (FIG. 17)."}}, "note": "Ends that are not written are not given here."}
{"substance": "Pt-GGNCC: platinum complex of the pentapeptide GGNCC (SEQ ID NO.:1) (cysteine pairing not given here; also: platinum complex)", "values": [{"measurement": "precipitation of the Pt-peptide complex at low pH", "setting": "[1]", "result": "Precipitation occurred"}]}
{"substance": "GNNCC: nickel complex of the pentapeptide GNNCC (SEQ ID NO.:2) (cysteine pairing not given here; also: nickel complex)", "values": [{"measurement": "pH range in which pH-dependent release of nickel occurs rapidly", "setting": "[2]", "result": "6-7 pH"}]}
